Assay results taken from US20200317768A1 (published 2020).
Where a chain is given by its changes, count along the chain named. Numbers in names are those of the source.

T1: human FcγRIIb constitutively expressed on MDCK cells (human, UniProt P31994 43-310)
T1 sequence (looked up): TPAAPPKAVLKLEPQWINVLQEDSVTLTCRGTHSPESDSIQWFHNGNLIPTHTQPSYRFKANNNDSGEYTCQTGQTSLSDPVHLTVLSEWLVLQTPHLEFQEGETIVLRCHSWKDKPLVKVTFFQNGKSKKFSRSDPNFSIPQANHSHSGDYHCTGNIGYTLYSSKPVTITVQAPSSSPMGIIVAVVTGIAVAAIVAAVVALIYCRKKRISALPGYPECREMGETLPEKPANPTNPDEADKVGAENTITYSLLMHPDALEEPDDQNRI

T2: human FcγRIIaH extracellular domain, C-terminal His-tag (human, UniProt P12318 34-217)
T2 construct: also called human FcγRIIa (type H); FcgRIIaH
T2 sequence: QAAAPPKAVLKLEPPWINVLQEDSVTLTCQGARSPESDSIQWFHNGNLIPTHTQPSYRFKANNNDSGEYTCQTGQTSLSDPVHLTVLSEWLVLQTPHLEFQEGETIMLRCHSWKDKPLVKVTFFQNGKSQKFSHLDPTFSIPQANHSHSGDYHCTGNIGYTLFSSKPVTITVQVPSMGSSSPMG

T3: human FcγRIIaR extracellular domain, C-terminal His-tag (human, UniProt P12318 34-217)
T3 construct: also called human FcγRIIa (type R); FcgRIIaR
T3 chain: T2 sequence with H134R

T4: soluble mouse FcγRII, His-tagged (mouse, UniProt P08101 30-210, limits assumed)
T4 construct: Captured on the chip by an anti-His antibody
T4 sequence (looked up): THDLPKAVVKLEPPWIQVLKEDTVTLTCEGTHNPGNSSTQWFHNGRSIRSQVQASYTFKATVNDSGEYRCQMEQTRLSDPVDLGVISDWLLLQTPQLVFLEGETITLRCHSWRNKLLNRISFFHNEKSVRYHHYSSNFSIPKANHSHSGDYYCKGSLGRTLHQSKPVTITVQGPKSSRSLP

B1: M103205H795-P1534m/M103202L889-SK1 (antibody, human IgG1, kappa)
heavy: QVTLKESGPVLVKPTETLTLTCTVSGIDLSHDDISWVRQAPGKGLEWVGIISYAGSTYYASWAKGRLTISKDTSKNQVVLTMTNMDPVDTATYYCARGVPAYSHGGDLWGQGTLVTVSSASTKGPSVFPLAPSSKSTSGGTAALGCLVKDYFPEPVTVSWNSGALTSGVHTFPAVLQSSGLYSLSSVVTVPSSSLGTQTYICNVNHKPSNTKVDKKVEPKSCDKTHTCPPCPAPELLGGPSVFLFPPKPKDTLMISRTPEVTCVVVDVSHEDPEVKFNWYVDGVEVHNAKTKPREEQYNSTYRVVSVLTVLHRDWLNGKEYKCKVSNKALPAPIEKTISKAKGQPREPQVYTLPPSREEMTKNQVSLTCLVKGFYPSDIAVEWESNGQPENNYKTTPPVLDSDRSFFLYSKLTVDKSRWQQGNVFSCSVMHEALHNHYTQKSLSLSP
light: DIVMTQSPATLSLSPGERATLSCTSSQSVYHANWLSWFQQKPGQPPKLLIYWASTLAYGVPSRFSGSGSGTDFTLTISSLQPEDAATYYCAGGYGGGRYAFGQGTKVEIKRTVAAPSVFIFPPSDEQLKSGTASVVCLLNNFYPREAKVQWKVDNALQSGNSQESVTEQDSKDSTYSLSSTLTLSKADYEKHKVYACEVTHQGLSSPVTKSFNRGEC
B2: M103205H795-P1537m/M103202L889-SK1 (antibody, human IgG1, kappa)
heavy: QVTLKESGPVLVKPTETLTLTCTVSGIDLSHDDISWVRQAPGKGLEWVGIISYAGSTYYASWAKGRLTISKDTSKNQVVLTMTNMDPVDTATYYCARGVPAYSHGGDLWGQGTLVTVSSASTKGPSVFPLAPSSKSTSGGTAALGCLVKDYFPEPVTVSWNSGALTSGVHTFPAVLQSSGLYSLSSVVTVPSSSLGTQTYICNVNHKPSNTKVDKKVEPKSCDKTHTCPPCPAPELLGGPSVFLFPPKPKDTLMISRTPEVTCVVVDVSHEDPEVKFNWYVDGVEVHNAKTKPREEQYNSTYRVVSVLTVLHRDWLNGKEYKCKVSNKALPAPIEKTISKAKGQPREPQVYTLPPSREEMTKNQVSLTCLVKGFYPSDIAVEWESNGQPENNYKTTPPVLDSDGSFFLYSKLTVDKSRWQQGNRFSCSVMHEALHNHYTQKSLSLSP
light: B1 light
B3: M103205H795-P1535m/M103202L889-SK1 (antibody, human IgG1, kappa)
heavy: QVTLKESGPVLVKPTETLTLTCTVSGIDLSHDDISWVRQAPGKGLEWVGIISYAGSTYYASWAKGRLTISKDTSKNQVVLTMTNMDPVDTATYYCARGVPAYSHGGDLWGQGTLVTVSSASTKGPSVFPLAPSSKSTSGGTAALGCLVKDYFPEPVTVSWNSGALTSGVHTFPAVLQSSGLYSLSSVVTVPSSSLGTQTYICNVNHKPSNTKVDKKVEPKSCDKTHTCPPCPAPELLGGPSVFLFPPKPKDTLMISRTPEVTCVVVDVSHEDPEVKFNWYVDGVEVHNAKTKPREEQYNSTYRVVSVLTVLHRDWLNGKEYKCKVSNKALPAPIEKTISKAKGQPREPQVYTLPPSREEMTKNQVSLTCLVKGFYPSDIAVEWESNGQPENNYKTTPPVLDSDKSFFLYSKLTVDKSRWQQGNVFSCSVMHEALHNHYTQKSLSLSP
light: B1 light
B4: M103205H795-P1540m/M103202L889-SK1 (antibody, human IgG1, kappa)
heavy: not shown
light: B1 light
B5: M103205H795-P1551m/M103202L889-SK1 (antibody, human IgG1, kappa)
heavy: QVTLKESGPVLVKPTETLTLTCTVSGIDLSHDDISWVRQAPGKGLEWVGIISYAGSTYYASWAKGRLTISKDTSKNQVVLTMTNMDPVDTATYYCARGVPAYSHGGDLWGQGTLVTVSSASTKGPSVFPLAPSSKSTSGGTAALGCLVKDYFPEPVTVSWNSGALTSGVHTFPAVLQSSGLYSLSSVVTVPSSSLGTQTYICNVNHKPSNTKVDKKVEPKSCDKTHTCPPCPAPELLGGPSVFLFPPKPKDTLMISRTPEVTCVVVDVSHEDPEVKFNWYVDGVEVHNAKTKPREEQYNSTYRVVSVLTVLHRDWLNGKEYKCKVSNKALPAPIEKTISKAKGQPREPQVYTLPPSREEMTKNQVSLTCLVKGFYPSDIAVEWESNGQPRNNYKTTPPVLDSDRSFFLYSKLTVDKSRWQQGNVFSCSVMHEALHNHYTQKSLSLSP
light: B1 light
B6: M103205H795-P1548m/M103202L889-SK1 (antibody, human IgG1, kappa)
heavy: B5 heavy with G387R, R390E, D403R, R404G
light: B1 light
B7: M103205H795-SG141/M103202L889-SK1 (antibody, human IgG1, kappa)
heavy: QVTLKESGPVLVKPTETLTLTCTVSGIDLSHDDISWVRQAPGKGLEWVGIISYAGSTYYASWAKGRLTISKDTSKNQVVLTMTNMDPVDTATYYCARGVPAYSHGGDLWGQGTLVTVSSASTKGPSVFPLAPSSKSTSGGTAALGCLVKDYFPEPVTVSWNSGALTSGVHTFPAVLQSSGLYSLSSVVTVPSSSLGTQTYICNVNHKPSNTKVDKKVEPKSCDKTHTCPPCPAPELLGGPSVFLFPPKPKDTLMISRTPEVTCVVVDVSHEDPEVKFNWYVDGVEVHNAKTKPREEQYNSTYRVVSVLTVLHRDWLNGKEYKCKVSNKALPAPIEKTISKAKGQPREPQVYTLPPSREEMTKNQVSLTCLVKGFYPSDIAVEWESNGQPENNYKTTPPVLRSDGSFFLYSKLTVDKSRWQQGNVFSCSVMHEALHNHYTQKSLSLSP
light: B1 light
B8: M103205H795-P1555m/M103202L889-SK1 (antibody, human IgG1, kappa)
heavy: B5 heavy with R313Q, D415K
light: B1 light
B9: M103205H795-P1536m/M103202L889-SK1 (antibody, human IgG1, kappa)
heavy: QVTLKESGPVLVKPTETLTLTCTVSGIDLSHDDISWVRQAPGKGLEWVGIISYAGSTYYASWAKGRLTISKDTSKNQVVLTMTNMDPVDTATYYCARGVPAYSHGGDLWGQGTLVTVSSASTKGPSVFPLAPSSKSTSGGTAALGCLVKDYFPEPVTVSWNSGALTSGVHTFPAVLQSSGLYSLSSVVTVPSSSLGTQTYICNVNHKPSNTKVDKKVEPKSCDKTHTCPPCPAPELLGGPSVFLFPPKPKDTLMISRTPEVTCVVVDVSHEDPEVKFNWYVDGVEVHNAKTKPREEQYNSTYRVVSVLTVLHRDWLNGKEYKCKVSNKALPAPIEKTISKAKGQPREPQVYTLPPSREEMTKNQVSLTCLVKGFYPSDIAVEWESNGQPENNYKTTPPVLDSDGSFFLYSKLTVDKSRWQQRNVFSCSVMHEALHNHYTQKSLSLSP
light: B1 light
B10: M103205H795-P1546m/M103202L889-SK1 (antibody, human IgG1, kappa)
heavy: B5 heavy with R390E, D415K
light: B1 light
B11: M103205H795-P1544m/M103202L889-SK1 (antibody, human IgG1, kappa)
heavy: B5 heavy with R390E, D403R, R404G, D415K
light: B1 light
B12: M103205H795-P1553m/M103202L889-SK1 (antibody, human IgG1, kappa)
heavy: B5 heavy with R313Q, G387R, R390E, D415K
light: B1 light
B13: M103205H795-P1539m/M103202L889-SK1 (antibody, human IgG1, kappa)
heavy: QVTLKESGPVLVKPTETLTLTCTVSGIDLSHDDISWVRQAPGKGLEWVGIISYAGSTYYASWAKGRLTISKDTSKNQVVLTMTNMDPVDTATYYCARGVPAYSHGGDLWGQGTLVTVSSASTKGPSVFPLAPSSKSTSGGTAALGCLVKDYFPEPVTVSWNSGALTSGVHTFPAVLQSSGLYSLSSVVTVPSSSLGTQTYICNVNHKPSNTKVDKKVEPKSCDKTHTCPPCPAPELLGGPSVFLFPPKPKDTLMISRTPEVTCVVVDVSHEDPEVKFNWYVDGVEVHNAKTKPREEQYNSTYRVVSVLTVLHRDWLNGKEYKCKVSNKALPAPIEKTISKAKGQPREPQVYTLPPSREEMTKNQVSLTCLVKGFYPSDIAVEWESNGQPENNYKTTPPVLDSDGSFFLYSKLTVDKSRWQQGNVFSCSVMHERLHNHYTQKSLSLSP
light: B1 light
B14: M103205H795-P1545m/M103202L889-SK1 (antibody, human IgG1, kappa)
heavy: B5 heavy with R390E, D403K, R404G, D415K
light: B1 light
B15: M103205H795-P1550m/M103202L889-SK1 (antibody, human IgG1, kappa)
heavy: B5 heavy with D403R, R404G
light: B1 light
B16: M103205H795-P1549m/M103202L889-SK1 (antibody, human IgG1, kappa)
heavy: B5 heavy with G387R, R390E
light: B1 light
B17: M103205H795-P1543m/M103202L889-SK1 (antibody, human IgG1, kappa)
heavy: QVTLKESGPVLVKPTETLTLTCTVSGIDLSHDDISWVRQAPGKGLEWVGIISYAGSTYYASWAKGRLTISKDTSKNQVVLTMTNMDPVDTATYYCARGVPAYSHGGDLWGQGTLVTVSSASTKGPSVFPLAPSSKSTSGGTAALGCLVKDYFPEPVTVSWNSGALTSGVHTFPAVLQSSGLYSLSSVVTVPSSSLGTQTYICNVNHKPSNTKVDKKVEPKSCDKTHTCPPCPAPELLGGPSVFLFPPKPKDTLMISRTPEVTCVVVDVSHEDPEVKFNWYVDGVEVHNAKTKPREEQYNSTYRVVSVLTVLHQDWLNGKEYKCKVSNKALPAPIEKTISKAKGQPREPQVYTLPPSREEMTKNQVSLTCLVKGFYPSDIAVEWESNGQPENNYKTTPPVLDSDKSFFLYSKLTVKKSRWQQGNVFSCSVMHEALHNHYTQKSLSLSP
light: B1 light
B18: M103205H795-P1538m/M103202L889-SK1 (antibody, human IgG1, kappa)
heavy: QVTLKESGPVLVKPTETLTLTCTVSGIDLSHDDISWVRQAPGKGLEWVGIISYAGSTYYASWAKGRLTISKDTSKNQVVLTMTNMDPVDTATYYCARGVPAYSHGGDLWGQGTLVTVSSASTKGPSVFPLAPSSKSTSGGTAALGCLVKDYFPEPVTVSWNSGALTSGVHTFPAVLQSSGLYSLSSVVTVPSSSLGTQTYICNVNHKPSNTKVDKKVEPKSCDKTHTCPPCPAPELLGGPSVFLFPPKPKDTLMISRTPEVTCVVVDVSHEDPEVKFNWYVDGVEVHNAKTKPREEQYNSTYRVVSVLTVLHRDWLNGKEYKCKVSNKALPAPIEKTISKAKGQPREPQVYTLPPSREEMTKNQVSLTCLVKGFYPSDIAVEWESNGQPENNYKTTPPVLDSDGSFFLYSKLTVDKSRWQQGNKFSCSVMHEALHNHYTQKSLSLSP
light: B1 light
B19: M103205H795-P1547m/M103202L889-SK1 (antibody, human IgG1, kappa)
heavy: B5 heavy with R390E, R404K, D415K
light: B1 light
B20: M103205H795-P1541m/M103202L889-SK1 (antibody, human IgG1, kappa)
heavy: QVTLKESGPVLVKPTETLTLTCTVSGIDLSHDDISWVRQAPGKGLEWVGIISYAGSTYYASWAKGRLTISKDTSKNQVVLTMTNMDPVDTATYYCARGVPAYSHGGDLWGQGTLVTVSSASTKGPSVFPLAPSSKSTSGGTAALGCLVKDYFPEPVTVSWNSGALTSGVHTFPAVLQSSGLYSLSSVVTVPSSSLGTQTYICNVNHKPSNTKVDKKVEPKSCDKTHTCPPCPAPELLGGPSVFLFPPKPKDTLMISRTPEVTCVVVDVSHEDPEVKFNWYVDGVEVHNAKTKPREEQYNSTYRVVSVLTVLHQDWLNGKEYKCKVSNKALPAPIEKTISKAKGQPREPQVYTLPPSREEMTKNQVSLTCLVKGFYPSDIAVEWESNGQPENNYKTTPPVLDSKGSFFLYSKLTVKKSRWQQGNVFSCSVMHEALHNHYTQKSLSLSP
light: B1 light
B21: M103205H795-P1542m/M103202L889-SK1 (antibody, human IgG1, kappa)
heavy: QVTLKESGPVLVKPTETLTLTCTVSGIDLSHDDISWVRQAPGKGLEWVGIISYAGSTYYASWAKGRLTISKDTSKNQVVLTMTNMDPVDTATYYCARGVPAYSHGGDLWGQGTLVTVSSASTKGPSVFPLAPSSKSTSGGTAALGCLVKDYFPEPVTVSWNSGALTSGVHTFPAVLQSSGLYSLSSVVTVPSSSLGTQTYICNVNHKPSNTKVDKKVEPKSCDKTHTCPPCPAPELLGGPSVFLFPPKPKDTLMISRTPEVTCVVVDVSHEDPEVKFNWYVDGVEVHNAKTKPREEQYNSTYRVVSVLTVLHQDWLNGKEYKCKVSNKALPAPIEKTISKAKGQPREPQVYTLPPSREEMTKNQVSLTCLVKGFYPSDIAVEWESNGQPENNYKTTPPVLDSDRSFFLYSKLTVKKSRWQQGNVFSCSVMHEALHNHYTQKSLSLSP
light: B1 light
B22: M103205H795-P1552m/M103202L889-SK1 (antibody, human IgG1, kappa)
heavy: B5 heavy with R313Q, G387R, R390E, D403R, R404G, D415K
light: B1 light
B23: GpH7-B3 variant A327N/GpL16-k0 (antibody, human IgG1, kappa)
heavy: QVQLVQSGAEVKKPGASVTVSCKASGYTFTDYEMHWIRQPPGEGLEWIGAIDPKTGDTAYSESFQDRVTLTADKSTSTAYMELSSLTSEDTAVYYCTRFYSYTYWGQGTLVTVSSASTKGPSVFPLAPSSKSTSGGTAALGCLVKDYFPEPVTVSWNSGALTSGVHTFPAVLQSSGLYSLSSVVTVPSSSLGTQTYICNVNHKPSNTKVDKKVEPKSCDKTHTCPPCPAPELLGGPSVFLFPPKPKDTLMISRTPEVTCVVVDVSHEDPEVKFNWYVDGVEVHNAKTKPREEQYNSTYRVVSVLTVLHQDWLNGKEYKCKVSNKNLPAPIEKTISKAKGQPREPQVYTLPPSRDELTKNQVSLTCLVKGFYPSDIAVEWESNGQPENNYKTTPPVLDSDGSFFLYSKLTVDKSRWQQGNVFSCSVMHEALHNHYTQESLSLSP
light: DIVMTQSPLSLPVTPGEPASISCQASESLVHSNRNTYLHWYLQKPGQSPQLLIYKVSNRFSGVPDRFSGSGSGTDFTLKISRVEAEDVGVYYCSQNTHVPPTFGQGTKVEIERTVAAPSVFIFPPSDEQLKSGTASVVCLLNNFYPREAKVQWKVDNALQSGNSQESVTEQDSKDSTYSLSSTLTLSKADYEKHKVYACEVTHQGLSSPVTKSFNRGEC
B24: GpH7-B3 variant P238M/GpL16-k0 (antibody, human IgG1, kappa)
heavy: not shown
light: B23 light
B25: GpH7-B3 variant G237Y/GpL16-k0 (antibody, human IgG1, kappa)
heavy: not shown
light: B23 light
B26: GpH7-B3 variant N325I/GpL16-k0 (antibody, human IgG1, kappa)
heavy: not shown
light: B23 light

Each binder was assayed against T1, human FcγRIIb constitutively expressed … (assay: cell-based or functional assay).

Row | celluar uptake | Binder
1 | 3.12 relative to SG1 (=1.00) | B1
2 | 2.77 relative to SG1 (=1.00) | B2
3 | 2.49 relative to SG1 (=1.00) | B3
4 | 7.64 relative to SG1 (=1.00) | B4
5 | 2.91 relative to SG1 (=1.00) | B5
6 | 2.3 relative to SG1 (=1.00) | B6
7 | 4.42 relative to SG1 (=1.00) | B7
8 | 3.71 relative to SG1 (=1.00) | B8
9 | 2.05 relative to SG1 (=1.00) | B9
10 | 5.1 relative to SG1 (=1.00) | B10
11 | 7.66 relative to SG1 (=1.00) | B11
12 | 2.86 relative to SG1 (=1.00) | B12
13 | 3.2 relative to SG1 (=1.00) | B13
14 | 7.73 relative to SG1 (=1.00) | B14
15 | 6.43 relative to SG1 (=1.00) | B15
16 | 2.03 relative to SG1 (=1.00) | B16
17 | 3.7 relative to SG1 (=1.00) | B17
18 | 1.84 relative to SG1 (=1.00) | B18
19 | 4.85 relative to SG1 (=1.00) | B19
20 | 7.17 relative to SG1 (=1.00) | B20
21 | 3.32 relative to SG1 (=1.00) | B21
22 | 4.44 relative to SG1 (=1.00) | B22

What follows are binders tested against T2, human FcγRIIaH extracellular domain, … (assay: SPR 25C; FcgR bound per captured antibody, relative to parent B3).
Procedure: (§1) These Fc variants are referred to as B3 variants. B3 variants were expressed and the binding of protein-A purified antibodies to each FcγR (FcγRIIa type H. FcγRIIa type R, FcγRIIb, and FcγRIIIaF) was comprehensively evaluated as follows. Analysis of interaction between each altered antibody and the Fcγ receptor prepared as mentioned above was carried out using BIACORE® T100 (GE Healthcare), BIACORE® T200 (GE Healthcare), BIACORE® A100, or BIACORE® 4000. HBS-EP+(GE Healthcare) was used as the running buffer, and the measurement temperature was set to 25° C. Chips produced by immobilizing Protein A (Thermo Scientific), Protein A/G (Thermo Scientific), or Protein L (ACTIGEN or BioVision) by the amine coupling method to a Series S sensor Chip CM5 or CM4 (GE Healthcare) were used. After capturing of antibodies of interest onto these sensor chips, an Fcγ receptor diluted with the running buffer was allowed to interact, the amount bound to an antibody was measured. However, since the amount of Fcγ receptor bound depends on the amount of the captured antibodies, the amount of Fcγ receptor bound was divided by the amount of each antibody captured to obtain corrected values, and these values were compared. Furthermore, antibodies captured onto the chips were washed by 10 mM glycine-HCl pH1.5, and the chips were regenerated and used repeatedly. […] The value obtained by multiplying this value by 100 was used as an indicator of the relative FcγR-binding activity of each variant.

Row | Binding to human FcgRs (parent B3 = 100) | Binder
23 | 95 | B23
24 | 86 | B24
25 | 77 | B25
26 | 76 | B26

Target: T3, human FcγRIIaR extracellular domain, …
Assay: as above
Procedure: as §1

Row | Binding to human FcgRs (parent B3 = 100) | Binder
27 | 48 | B23

Each binder was assayed against T4, soluble mouse FcγRII, His-tagged (assay: SPR, mouse FcgRII-His captured, antigen-antibody complex injected, pH7.4, 25C).
Procedure: Regarding the produced Fc region variant-containing antibodies, binding assays between soluble mouse FcγRII and antigen-antibody complexes were performed using BIACORE® T200 (GE Healthcare). Soluble mouse FcγRII was produced in the form of a His-tagged molecule by a method known to those skilled in the art. An appropriate amount of an anti-His antibody was fixed onto Sensor chip CM5 (GE Healthcare) by the amine coupling method using a His capture kit (GE Healthcare) to capture mouse FcγRII. Next, an antibody-antigen complex and a running buffer (as a reference solution) were injected, and interaction was allowed to take place with the mouse FcγRII captured onto the sensor chip. 20 mM N-(2-Acetamido)-2-aminoethanesulfonic acid, 150 mM NaCl, 1.2 mM CaCl₂, and 0.05% (w/v) TWEEN, 20 at pH7.4 was used as the running buffer, and the respective buffer was also used to dilute the soluble mouse FcγRII. To regenerate the sensor chip, 10 mM glycine-HCl at pH1.5 was used. All measurements were carried out at 25° C. […] To calculate the parameters, the BIACORE® T100 Evaluation Software (GE Healthcare) was used.

Row | biacore IC binding | Binder
28 | 1.12 relative to SG1 (=1.00) | B1
29 | 1.32 relative to SG1 (=1.00) | B2
30 | 1.11 relative to SG1 (=1.00) | B3
31 | 1.73 relative to SG1 (=1.00) | B4
32 | 1.33 relative to SG1 (=1.00) | B5
33 | 1.37 relative to SG1 (=1.00) | B6
34 | 1.64 relative to SG1 (=1.00) | B7
35 | 2.01 relative to SG1 (=1.00) | B8
36 | 1.16 relative to SG1 (=1.00) | B9
37 | 1.41 relative to SG1 (=1.00) | B10
38 | 2.04 relative to SG1 (=1.00) | B11
39 | 1.47 relative to SG1 (=1.00) | B12
40 | 0.9 relative to SG1 (=1.00) | B13
41 | 1.8 relative to SG1 (=1.00) | B14
42 | 1.63 relative to SG1 (=1.00) | B15
43 | 1.22 relative to SG1 (=1.00) | B16
44 | 1.19 relative to SG1 (=1.00) | B17
45 | 1.11 relative to SG1 (=1.00) | B18
46 | 1.33 relative to SG1 (=1.00) | B19
47 | 1.57 relative to SG1 (=1.00) | B20
48 | 1.21 relative to SG1 (=1.00) | B21
49 | 2.19 relative to SG1 (=1.00) | B22
